Reference: paper PMC3384689 (Biochemistry, 2012)

B1: full-length Thermotoga maritima FliG (FliGNMC) (natural protein, UniProt Q9WY63 1-335, looked up)
chain: MPEKKIDGRRKAAVLLVALGPEKAAQVMKHLDEETVEQLVVEIANIGRVTPEEKKQVLEEFLSLAKAKEMISEGGIEYAKKVLEKAFGPERARKIIERLTSSLQVKPFSFVRDTDPVQLVNFLQSEHPQTIAVVLSYLDPPVAAQILGALPEELQTEVLKRIALLERTSPEVVKEIERNLEKKISGFVSRTFSKVGGIDTAAEIMNNLDRTTEKKIMDKLVQENPELADEIRRRMFVFEDILKLDDRSIQLVLREVDTRDLALALKGASDELKEKIFKNMSKRAAALLKDELEYMGPVRLKDVEEAQQKIINIIRRLEEAGEIVIARGGGEELIM
B2: full-length FliG: full-length T. maritima FliGNMC, including a N-terminal 6X-His tag (protein)
chain: B1 chain
modifications: left off: 6X-His, N-terminal, state not stated
B3: Thermotoga maritima FliG N-terminal domain construct, residues 1–102 (FliGN) (domain or fragment, UniProt Q9WY63 1-102, looked up)
chain: MPEKKIDGRRKAAVLLVALGPEKAAQVMKHLDEETVEQLVVEIANIGRVTPEEKKQVLEEFLSLAKAKEMISEGGIEYAKKVLEKAFGPERARKIIERLTSS
modifications: 15N, 2H (and 13C) isotope labelling in the NMR experiments

Legend:
[1] = target: the molecule itself; assay: SEC-MALS
[2] = tested on: full-length FliG; assay: Size-exclusion chromatography / light scattering, full-length FliG; assay type: physicochemical, T. maritima; details: SEC / static light scattering / refractive index; ~1 mg/mL, 25 mM Tris, 200 mM NaCl, 0.5 mM EDTA, pH 7.4
[3] = target: synthetic FliF_(495–532) peptide of Thermotoga maritima FliF (Thermotoga maritima); assay: other fluorescence titration
[4] = target: synthetic FliF_(512–532) peptide of Thermotoga maritima FliF (Thermotoga maritima); assay: other fluorescence titration

Molecule	stoichiometry N [1]	Calculated Mw of full-length FliG, absence of peptide [2]	Oligomeric state of full-length FliG, absence of peptide [2]	stoichiometry N [3]	Kd [4] [nM]
B1	2				
B2		≈ 79 kD	tight dimer		
B3	2			1	84
